{"source": "paper PMC11154593", "about": "“New insights into the domain of unknown function (DUF) of EccC5, the pivotal ATPase providing the secretion driving force to the ESX-5 secretion system” (Acta Crystallographica. Section D, Structural Biology, 2024)", "proteins": {"B1": {"name": "DUF domain of EccC5 from M. tuberculosis (crystallographic construct, residues 1-417 with 17-118 rep (domain or fragment)", "chain": "MKRGFARPTPEKPPVIGSSGQESADSMDANYRWFHPAPNTLAAAVGSPRMWERKPDGKDLNFGVVRVGGSGFGRYQSVVYNLPKMVSLLVEPWYALVGEREQVLGLMRAIICQLAFSHGPDHVQMIVVSSDLDQWDWVKWLPHFGDSRRHDAAGNARMVYTSVREFAAEQAELFAGRGSFTPRHASSSAQTPTPHTVIIADVDDPQWEYVISAEGVDGVTFFDLTGSSMWTDIPERKLQFDKTGVIEALPRDRDTWMVIDDKAWFFALTDQVSIAEAEEFAQKLAQWRLA", "notes": "EccC5, M. tuberculosis, UniProt P9WNA5, residues 1-16 (before the removed transmembrane region); linker replacing residues 17-118; EccC5, M. tuberculosis, UniProt P9WNA5, residues 119-166; linker replacing residues 167-198; EccC5, M. tuberculosis, UniProt P9WNA5, residues 199-417; also called MtbEccC5 DUF; EccC5 DUF; not shown: His6, N-terminal, cleaved; SUMO, N-terminal, cleaved"}}, "molecular_target": "the molecule itself", "experiment": "SEC; […] (16/60) […]; 20 mM Tris-HCl pH 7.5, 150 mM NaCl ([…]) or 20 mM HEPES pH 7.5, 150 mM NaCl, 5 mM MgCl2 ([…]; 4°C", "note": "“And” between values parts separate entries of the source, which are not always exact repeats. Equal entries are not always repeated."}
{"protein": "B1", "values": [{"measurement": "stoichiometry N", "result": "3 and 6"}]}
